B1: Hammerhead Ribozyme (parent)
chain: ACCGGAUGUGCUUUCCGGUCUGAUGAGUCCGUGAGGACGAAACAG

Variants of: B1
Assay: self-cleavage, relative activity (ratio to wild type); higher = more cleavage; co-transcriptional

First: ACCGGAUGUGCUUUCCGGUCUGAUGAGUCCGUGACCACGAAACAG
Second: ACGGGAUGUGCUUUCCGGUCUGAUGAGCCCGUGAGGACGAAACAG
The self-cleavage of the first is lower: 0.425 for the first, 0.447 for the second.

Going from ACCGGAUGUGCUUUCCGGUCCGAUGAGUCUGUGAGGACGAAACAG to ACCGGAUGUGCUUUCCGCUCUGAUGAGUCCGUGAGUACGAAACAG, the self-cleavage falls from 0.891 to 0.337.

First: ACCGGAUGUGCUUUCCGGUCUGAUGACUCCGUGAGGACGAAACGG
Second: ACCGGAUGUGCUUUCCGGUCUGAAGAGUCCGUGAGGACGAGACAG
The self-cleavage of the first is higher: 0.988 for the first, 0.473 for the second.

First: ACCGGAUGAGCUUUCCGGUCUGAUGAGUCCGUGGGGACGAAACAG
Second: ACCGGAUGUGCUUUCCGGCCUGAUCAGUCCGUGAGGACGAAACAG
The self-cleavage of the first is higher: 0.751 for the first, 0.378 for the second.

Compared with UCCGGAUGUGCUUUCCGGUCUGAUGAGUCCGUGAGGACGAGACAG, ACCGGAUGUGCUUUCCGGUCUGAUGAAUCCGUGAGGAGGAAACAG is higher in self-cleavage: 0.414 for the first, 0.623 for the second.

Going from ACCGGAUGUUCUUUCCGGUCUGAUGAGUCCGUGAGGAAGAAACAG to ACCGGAUGUGCUUUCCGGUGUGAUGAGUCCGUGAGGACUAAACAG, the self-cleavage falls from 0.645 to 0.316.

First: AAAGGAUGUGCUUUCCGGUCUGAUGAGUCCGUGAGGACGAAACAG
Second: ACCGGAUGUGCUUUCCGAUCUGAUGAGUCCGUGAGGACGCAACAG
The self-cleavage of the first is higher: 0.476 for the first, 0.308 for the second.

First: ACCGGAUGUGCUUUCCGGUCUGAUGAGUCCGGGAUGACGAAACAG
Second: ACCGGAUGUGCUUUCCGGUAUGAUGCGUCCGUGAGGACGAAACAG
The self-cleavage of the first is higher: 0.603 for the first, 0.397 for the second.

First: ACCGGAGGUGCUCUCCGGUCUGAUGAGUCCGUGAGGACGAAACAG
Second: ACCGGCUGUGCUAUCCGGUCUGAUGAGUCCGUGAGGACGAAACAG
The self-cleavage of the first is higher: 1.45 for the first, 0.906 for the second.

Compared with ACCGGAUGUGCUUUCCGGUCUGAUGAGUACGUGAGGACAAAACAG, ACCGGAUGUGCUUUCCGGUCUGAUGAUUCCGUGACGACGAAACAG is higher in self-cleavage: 0.356 for the first, 0.407 for the second.

First: ACUGGAUGUGCUUUCCGAUCUGAUGAGUCCGUGAGGACGAAACAG
Second: ACCGGAUGUGAUUUCCGGUCUGAUGAGUCCGUGAGGACAAAACAG
The self-cleavage of the first is higher: 0.412 for the first, 0.303 for the second.

Compared with ACCGGAUGUGCUUUCCGGUCUGAUUAGUCCGUGAGGACGAAACGG, ACCGGAUGUGCUUUCCAGUCUGAUGAGUCCGUGAGUACGAAACAG is lower in self-cleavage: 0.669 for the first, 0.418 for the second.

First: ACCGGAUGUGCUUUCCGGCCUGAUGAGUCCGUGAGGACGAAACGG
Second: ACCGGAUGUGCUUUCCCGUCUGGUGAGUCCGUGAGGACGAAACAG
The self-cleavage of the first is higher: 0.751 for the first, 0.417 for the second.

First: ACCGGAUGUUCUUUCCGGUCUGAUGAGUCCGUGAGGACGAAACAA
Second: ACCGCAUGUGCUUUCCGGUCUGAUGAGUCCGUGAGGAGGAAACAG
The self-cleavage of the first is higher: 0.694 for the first, 0.278 for the second.

First: ACCGGAUGUGUUUUCCGGUCUGAUGAGUCCGUGAGGACGAAAUAG
Second: ACCGGAUGUGCUUUCCGGUCUGAUGAGUCCGUUAGGAAGAAACAG
The self-cleavage of the first is lower: 0.529 for the first, 0.824 for the second.

Going from ACCGGAUGUCCUUUCCGGUCUGAUGAGUCCGUGAGGAUGAAACAG to ACCGGAUGUGCUUUCCGGUCUGAUGAGUCCGCGAGGACGAAAGAG, the self-cleavage falls from 1.16 to 0.388.

First: ACCGGAUGUGCCUUCCGGUCUGAUGAGUCCUUGAGGACGAAACAG
Second: ACCGGCUGUGAUUUCCGGUCUGAUGAGUCCGUGAGGACGAAACAG
The self-cleavage of the first is higher: 1 for the first, 0.669 for the second.

First: ACCGGAUGUGCUUUCCGGUCUGAUGAGUCCGUGAGGACGAACCAU
Second: ACCGGAUGUACUUUCCGGUCUGAUGGGUCCGUGAGGACGAAACAG
The self-cleavage of the first is higher: 0.421 for the first, 0.353 for the second.

First: ACCGGUUGUGCCUUCCGGUCUGAUGAGUCCGUGAGGACGAAACAG
Second: ACCGGAUGUGCUUUCCGGUCUGAUGGGACCGUGAGGACGAAACAG
The self-cleavage of the first is higher: 0.716 for the first, 0.274 for the second.

Compared with ACCGGAUGUGCUUUCAGGUCUGAUGAGUCCGUGAGGCCGAAACAG, ACCGGAUGCGCUUUCCGGUCUGAUGAGUCCCUGAGGACGAAACAG is higher in self-cleavage: 0.898 for the first, 1 for the second.

Going from ACCGGAUGUGCUUUCCGGUCUGAUGAGUCACUGAGGACGAAACAG to GCCGGAUGUGCUUUCCGGUCUGAUGAGUCCGUCAGGACGAAACAG, the self-cleavage rises from 0.872 to 1.67.

First: ACCGGAUGUGCUUUACGGUCUGAUGAGUCCGUGAGGACGAAAAAG
Second: ACCGGAUGUGCUUUCCGGUCUGAUGACUCCGUGAGGAUGAAACAG
The self-cleavage of the first is lower: 0.341 for the first, 0.792 for the second.

Going from AUCGGAUGUGCUUUCCGGUCUGAUGAGUCCGUGAGAACGAAACAG to ACCCGAUGUGCUUUCCGGUCUGAUGAAUCCGUGAGGACGAAACAG, the self-cleavage falls from 0.698 to 0.476.

Compared with ACCGGAUGUGCUUUCCGGUCUAAAGAGUCCGUGAGGACGAAACAG, ACCGGAUGUGCUUUUCUGUCUGAUGAGUCCGUGAGGACGAAACAG is higher in self-cleavage: 0.378 for the first, 0.476 for the second.

Going from ACCUGAUGUGCUUUCCGGUCUGAUGAGUCCGUGAGGCCGAAACAG to ACCGGAUGUGCUUACCGGUCUGAUGAGUCCGUGAGGACGAAGCAG, the self-cleavage falls from 0.329 to 0.279.

First: ACCGGAUGUGCUUUCCGGUCUGAUGUGUCCGUGAGGACGUAACAG
Second: ACCGGAUUUGCUUUCCGGUCUGAUGAGUCCGUAAGGACGAAACAG
The self-cleavage of the first is lower: 0.341 for the first, 0.938 for the second.

Compared with ACCGGGUGUGCUUUCCGGUCUGAUGAGUCCUUGAGGACGAAACAG, ACCGGAUGUGCUUUCCGGUCUGAUGAGUCCGUGAGUACGAAACAG is lower in self-cleavage: 0.945 for the first, 0.625 for the second.

First: ACCGGAUGUGCUUUCCGGUCUGAUGAGUCCGUGAGGACGACACCG
Second: ACCGGAUGUGCUUUCCGGUCUGAUGAGUCCGUGAGGACGAAUCAU
The self-cleavage of the first is higher: 0.436 for the first, 0.427 for the second.

ACCGGAUGUGCUUUCCGGUCUGAGGAAUCCGUGAGGACGAAACAG gave a self-cleavage of 0.504.

From the RNAGym collection of RNA variant scans (doi:10.7554/elife.80360)
